Experimental data taken from patent US20180273587A1 (AILERON THERAPEUTICS, published 2018).
Positions of bridges follow the written chain, without caps; N, C: chain ends. Non-standard residues stand in square brackets, D forms with d. Phe(4-F) = N[C@@H](Cc1ccc(F)cc1)C(=O)O; R8 = C=CCCCCCC[C@@](C)(N)C(=O)O; hLeu = CC(C)CC[C@H](N)C(=O)O; S5 = C=CCCC[C@](C)(N)C(=O)O

B1: SEQ ID NO: 1780 (peptide)
peptide: Ac-AWIAAALR[R8][hLeu]GDAFN[S5]A[Phe(4-F)]A-NH2
modifications: staple 9-16
SMILES: CC[C@H](C)[C@H](NC(=O)[C@H](Cc1c[nH]c2ccccc12)NC(=O)[C@H](C)NC(C)=O)C(=O)N[C@@H](C)C(=O)N[C@@H](C)C(=O)N[C@@H](C)C(=O)N[C@@H](CC(C)C)C(=O)N[C@@H](CCCNC(=N)N)C(=O)N[C@]1(C)CCCCCCC=CCCC[C@@](C)(C(=O)N[C@@H](C)C(=O)N[C@@H](Cc2ccc(F)cc2)C(=O)N[C@@H](C)C(N)=O)NC(=O)[C@H](CC(N)=O)NC(=O)[C@H](Cc2ccccc2)NC(=O)[C@H](C)NC(=O)[C@H](CC(=O)O)NC(=O)CNC(=O)[C@H](CCC(C)C)NC1=O
B2: SEQ ID NO: 1727 (peptide)
peptide: Ac-IHIAAALR[R8]IGDAFN[S5]YYA-NH2
modifications: staple 9-16
SMILES: CC[C@H](C)[C@H](NC(C)=O)C(=O)N[C@@H](Cc1c[nH]cn1)C(=O)N[C@H](C(=O)N[C@@H](C)C(=O)N[C@@H](C)C(=O)N[C@@H](C)C(=O)N[C@@H](CC(C)C)C(=O)N[C@@H](CCCNC(=N)N)C(=O)N[C@]1(C)CCCCCCC=CCCC[C@@](C)(C(=O)N[C@@H](Cc2ccc(O)cc2)C(=O)N[C@@H](Cc2ccc(O)cc2)C(=O)N[C@@H](C)C(N)=O)NC(=O)[C@H](CC(N)=O)NC(=O)[C@H](Cc2ccccc2)NC(=O)[C@H](C)NC(=O)[C@H](CC(=O)O)NC(=O)CNC(=O)[C@H]([C@@H](C)CC)NC1=O)[C@@H](C)CC
B3: SEQ ID NO: 1729 (peptide)
peptide: Ac-INIAAALR[R8]IGDAFN[S5]YYA-NH2
modifications: staple 9-16
SMILES: CC[C@H](C)[C@H](NC(C)=O)C(=O)N[C@@H](CC(N)=O)C(=O)N[C@H](C(=O)N[C@@H](C)C(=O)N[C@@H](C)C(=O)N[C@@H](C)C(=O)N[C@@H](CC(C)C)C(=O)N[C@@H](CCCNC(=N)N)C(=O)N[C@]1(C)CCCCCCC=CCCC[C@@](C)(C(=O)N[C@@H](Cc2ccc(O)cc2)C(=O)N[C@@H](Cc2ccc(O)cc2)C(=O)N[C@@H](C)C(N)=O)NC(=O)[C@H](CC(N)=O)NC(=O)[C@H](Cc2ccccc2)NC(=O)[C@H](C)NC(=O)[C@H](CC(=O)O)NC(=O)CNC(=O)[C@H]([C@@H](C)CC)NC1=O)[C@@H](C)CC
B4: SEQ ID NO: 1728 (peptide)
peptide: Ac-ISIAAALR[R8]IGDAFN[S5]YYA-NH2
modifications: staple 9-16
SMILES: CC[C@H](C)[C@H](NC(C)=O)C(=O)N[C@@H](CO)C(=O)N[C@H](C(=O)N[C@@H](C)C(=O)N[C@@H](C)C(=O)N[C@@H](C)C(=O)N[C@@H](CC(C)C)C(=O)N[C@@H](CCCNC(=N)N)C(=O)N[C@]1(C)CCCCCCC=CCCC[C@@](C)(C(=O)N[C@@H](Cc2ccc(O)cc2)C(=O)N[C@@H](Cc2ccc(O)cc2)C(=O)N[C@@H](C)C(N)=O)NC(=O)[C@H](CC(N)=O)NC(=O)[C@H](Cc2ccccc2)NC(=O)[C@H](C)NC(=O)[C@H](CC(=O)O)NC(=O)CNC(=O)[C@H]([C@@H](C)CC)NC1=O)[C@@H](C)CC

biological target: T1, MCL-1 (UniProt Q07820 172-327, limits assumed); assay: Ki; method not stated; unit not printed (nM per Table 6)
T1 construct: Target of the Ki columns; also called Myeloid cell leukemia 1
T1 sequence (Q07820 172-327 limits assumed): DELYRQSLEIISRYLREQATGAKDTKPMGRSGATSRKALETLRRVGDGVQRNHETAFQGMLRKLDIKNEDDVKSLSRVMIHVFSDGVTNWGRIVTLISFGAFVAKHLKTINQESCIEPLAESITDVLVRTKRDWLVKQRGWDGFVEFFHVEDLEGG

Ki [nM]	Binder
29	IWIAQALRAIGDAFNAYYX (N-terminal Ac; $r8 at 9 and $ at 16 (crosslinked); Aib at 19; C-terminal NH2) [SEQ ID NO: 1770]
23	B1
6.6	B2
11.2	B3
15.3	B4

biological target: T2, BCL-2 (UniProt P10415 1-217, limits assumed); assay: as above
T2 construct: Target of the Ki columns
T2 sequence (P10415 1-217 limits assumed): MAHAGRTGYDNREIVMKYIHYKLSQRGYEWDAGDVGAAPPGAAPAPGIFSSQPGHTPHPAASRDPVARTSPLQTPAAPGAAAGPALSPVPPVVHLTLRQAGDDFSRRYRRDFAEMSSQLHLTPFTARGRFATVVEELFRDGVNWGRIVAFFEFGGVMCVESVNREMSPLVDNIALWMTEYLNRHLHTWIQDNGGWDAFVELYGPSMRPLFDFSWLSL

Ki [nM]	Binder
218	IWIAQALRAIGDAFNAYYX (N-terminal Ac; $r8 at 9 and $ at 16 (crosslinked); Aib at 19; C-terminal NH2) [SEQ ID NO: 1770]
43	B2
62.5	B3
89.5	B4

biological target: T3, BCL-XL (UniProt Q07817 1-209); assay: as above
T3 construct: Target of the Ki columns
T3 sequence (Q07817 1-209): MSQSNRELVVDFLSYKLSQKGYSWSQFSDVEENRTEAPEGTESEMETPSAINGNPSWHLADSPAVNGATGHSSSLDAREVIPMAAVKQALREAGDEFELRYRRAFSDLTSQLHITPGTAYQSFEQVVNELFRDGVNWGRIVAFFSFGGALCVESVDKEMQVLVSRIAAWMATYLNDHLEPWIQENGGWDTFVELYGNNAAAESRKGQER

Ki [nM]	Binder
9	B1
19.5	B2
37.3	B3
56.2	B4
